Literature values, collected in patent publication US8840883B2, “Metallo-protein and tocotrienol (MP-T3) compositions with non-protein-type metal chelator and uses thereof” (Naidu LP, priority 2007, dated 2014).

Test system: macrophages incubated with acetylated low-density lipoproteins (LDL)

B1: bovine milk LF: bi-lobed glycoprotein of the transferrin family of iron-binding metallo-proteins, from bovine milk (protein, UniProt P24627 20-708, looked up)
Lactotransferrin: APRKNVRWCTISQPEWFKCRRWQWRMKKLGAPSITCVRRAFALECIRAIAEKKADAVTLDGGMVFEAGRDPYKLRPVAAEIYGTKESPQTHYYAVAVVKKGSNFQLDQLQGRKSCHTGLGRSAGWIIPMGILRPYLSWTESLEPLQGAVAKFFSASCVPCIDRQAYPNLCQLCKGEGENQCACSSREPYFGYSGAFKCLQDGAGDVAFVKETTVFENLPEKADRDQYELLCLNNSRAPVDAFKECHLAQVPSHAVVARSVDGKEDLIWKLLSKAQEKFGKNKSRSFQLFGSPPGQRDLLFKDSALGFLRIPSKVDSALYLGSRYLTTLKNLRETAEEVKARYTRVVWCAVGPEEQKKCQQWSQQSGQNVTCATASTTDDCIVLVLKGEADALNLDGGYIYTAGKCGLVPVLAENRKSSKHSSLDCVLRPTEGYLAVAVVKKANEGLTWNSLKDKKSCHTAVDRTAGWNIPMGLIVNQTGSCAFDEFFSQSCAPGADPKSRLCALCAGDDQGLDKCVPNSKEKYYGYTGAFRCLAEDVGDVAFVKNDTVWENTNGESTADWAKNLNREDFRLLCLDGTRKPVTEAQSCHLAVAPNHAVVSRSDRAAHVKQVLLHQQALFGKNGKNCPDKFCLFKSETKNLLFNDNTECLAKLGGRPTYEEYLGTEYVTAIANLKKCSTSPLLEACAFLTR
decrease of accumulation of CE in macrophages: more than 80%
